First the molecules themselves.
T1: full-length human 14-3-3σ fused to the C terminus of MBP (human, UniProt P31947 1-248)
T1 chain: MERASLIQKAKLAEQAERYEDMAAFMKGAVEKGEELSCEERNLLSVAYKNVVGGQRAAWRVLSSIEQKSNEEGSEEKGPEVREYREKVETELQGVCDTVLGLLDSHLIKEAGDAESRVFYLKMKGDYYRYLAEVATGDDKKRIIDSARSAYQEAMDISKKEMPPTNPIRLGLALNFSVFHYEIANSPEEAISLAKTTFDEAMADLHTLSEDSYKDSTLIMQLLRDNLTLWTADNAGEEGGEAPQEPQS

T2: full-length human 14-3-3η fused to the C terminus of MBP (human, UniProt Q04917 1-246)
T2 chain: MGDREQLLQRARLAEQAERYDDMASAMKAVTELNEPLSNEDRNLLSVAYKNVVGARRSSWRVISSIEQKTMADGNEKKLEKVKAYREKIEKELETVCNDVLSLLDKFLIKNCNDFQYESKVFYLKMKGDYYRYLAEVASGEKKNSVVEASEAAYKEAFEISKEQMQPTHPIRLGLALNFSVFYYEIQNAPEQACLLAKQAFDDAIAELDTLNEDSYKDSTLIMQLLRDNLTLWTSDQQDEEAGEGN

T3: full-length human 14-3-3β fused to the C terminus of MBP (human, UniProt P31946 1-246)
T3 chain: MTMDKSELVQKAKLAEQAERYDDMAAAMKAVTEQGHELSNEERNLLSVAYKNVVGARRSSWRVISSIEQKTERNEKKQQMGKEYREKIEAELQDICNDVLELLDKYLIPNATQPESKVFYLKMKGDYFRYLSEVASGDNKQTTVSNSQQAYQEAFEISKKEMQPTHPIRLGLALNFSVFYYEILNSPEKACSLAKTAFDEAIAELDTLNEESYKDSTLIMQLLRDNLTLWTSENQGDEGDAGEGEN

T4: full-length human 14-3-3τ fused to the C terminus of MBP (human, UniProt P27348 1-245)
T4 chain: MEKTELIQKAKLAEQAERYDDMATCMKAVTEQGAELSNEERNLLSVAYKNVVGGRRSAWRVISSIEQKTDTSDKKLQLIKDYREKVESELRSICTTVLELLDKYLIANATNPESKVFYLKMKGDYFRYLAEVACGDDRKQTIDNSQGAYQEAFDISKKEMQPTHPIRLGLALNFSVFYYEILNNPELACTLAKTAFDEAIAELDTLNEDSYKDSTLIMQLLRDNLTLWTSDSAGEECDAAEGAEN

T5: full-length human 14-3-3ε fused to the C terminus of MBP (human, UniProt P62258 1-255)
T5 chain: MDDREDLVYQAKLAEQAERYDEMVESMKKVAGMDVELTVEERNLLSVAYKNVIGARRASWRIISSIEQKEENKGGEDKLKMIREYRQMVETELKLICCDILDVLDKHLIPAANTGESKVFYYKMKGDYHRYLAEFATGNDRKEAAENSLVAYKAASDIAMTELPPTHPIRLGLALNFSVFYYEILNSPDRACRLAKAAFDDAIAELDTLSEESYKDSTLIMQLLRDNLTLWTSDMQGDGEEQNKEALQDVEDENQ

T6: full-length human 14-3-3ζ fused to the C terminus of MBP (human, UniProt P63104 1-245)
T6 chain: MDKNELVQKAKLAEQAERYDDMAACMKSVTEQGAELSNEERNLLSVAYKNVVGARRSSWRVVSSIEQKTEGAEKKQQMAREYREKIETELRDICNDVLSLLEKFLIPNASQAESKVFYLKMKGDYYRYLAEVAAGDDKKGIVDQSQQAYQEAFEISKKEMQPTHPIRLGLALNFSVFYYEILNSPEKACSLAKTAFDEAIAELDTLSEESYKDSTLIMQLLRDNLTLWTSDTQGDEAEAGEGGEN

T7: unfused 14-3-3ε devoid of the flexible C-terminal tail (human)
T7 chain: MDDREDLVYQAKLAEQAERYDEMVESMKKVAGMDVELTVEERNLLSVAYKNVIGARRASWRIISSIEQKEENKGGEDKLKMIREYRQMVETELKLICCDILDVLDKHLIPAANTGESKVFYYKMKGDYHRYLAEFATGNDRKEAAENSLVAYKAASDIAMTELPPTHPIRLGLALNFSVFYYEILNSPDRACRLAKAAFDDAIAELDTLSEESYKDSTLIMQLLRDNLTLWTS

T8: unfused 14-3-3τ devoid of the flexible C-terminal tail (human)
T8 chain: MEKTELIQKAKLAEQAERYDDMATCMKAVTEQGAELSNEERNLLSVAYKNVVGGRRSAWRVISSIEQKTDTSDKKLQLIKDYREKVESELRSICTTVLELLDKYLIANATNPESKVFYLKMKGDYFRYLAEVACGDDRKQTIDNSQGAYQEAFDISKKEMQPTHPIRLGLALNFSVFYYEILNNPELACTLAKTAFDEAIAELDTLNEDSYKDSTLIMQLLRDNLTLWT

T9: unfused 14-3-3β devoid of the flexible C-terminal tail (human)
T9 chain: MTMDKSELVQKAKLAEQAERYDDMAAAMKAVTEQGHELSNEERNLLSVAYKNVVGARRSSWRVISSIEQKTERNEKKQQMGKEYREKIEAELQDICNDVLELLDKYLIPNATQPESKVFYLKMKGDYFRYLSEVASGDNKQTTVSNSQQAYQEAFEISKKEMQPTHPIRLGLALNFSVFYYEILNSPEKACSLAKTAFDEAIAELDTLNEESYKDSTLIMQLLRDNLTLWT

B1: full-length human 14-3-3γ fused to the C terminus of MBP (natural protein)
chain: MVDREQLVQKARLAEQAERYDDMAAAMKNVTELNEPLSNEERNLLSVAYKNVVGARRSSWRVISSIEQKTSADGNEKKIEMVRAYREKIEKELEAVCQDVLSLLDNYLIKNCSETQYESKVFYLKMKGDYYRYLAEVATGEKRATVVESSEKAYSEAHEISKEHMQPTHPIRLGLALNYSVFYYEIQNAPEQACHLAKTAFDDAIAELDTLNEDSYKDSTLIMQLLRDNLTLWTSDQQDDDGGEGNN

Where two headings read alike, the source gives them in different places. Non-standard residues stand in square brackets, D forms with d. No end group written: not given here. *: point of attachment. FITC = O=C1OC2(c3ccc(O)cc3Oc3cc(O)ccc32)c2ccc(NC(=S)*)cc21; Biotin = O=C1N[C@H]2[C@H](CS[C@H]2CCCCC(=O)*)N1; pT = C[C@@H](OP(=O)(O)O)[C@H](N)C(=O)O; ttds = NCCCOCCOCCOCCCNC(=O)CCC(=O)*; pS = N[C@@H](COP(=O)(O)O)C(=O)O

The target in assay [1] is T1, full-length human 14-3-3σ fused to the …. The assay is described as follows: FP.
Assay [2] has as its target T2, full-length human 14-3-3η fused to the …. The assay is described as follows: FP.
Assay [3] concerns the target B1. The assay is described as follows: FP.
The target of assay [4] is T3, full-length human 14-3-3β fused to the …. The assay is described as follows: FP.
Assay [5] addresses T4, full-length human 14-3-3τ fused to the …. The assay is described as follows: FP.
In assay [6] the target is T5, full-length human 14-3-3ε fused to the …. The assay is described as follows: FP.
Assay [7] has as its target T6, full-length human 14-3-3ζ fused to the …. The assay is described as follows: FP.
Assay [8] deals with T1, full-length human 14-3-3σ fused to the …. The assay is described as follows: FP.
Assay [9] has as its target T2, full-length human 14-3-3η fused to the …. The assay is described as follows: FP.
Assay [10] concerns the target B1. The assay is described as follows: FP.
Assay [11] addresses T3, full-length human 14-3-3β fused to the …. The assay is described as follows: FP.
In assay [12] the target is T4, full-length human 14-3-3τ fused to the …. The assay is described as follows: FP.
For assay [13], the target named is T5, full-length human 14-3-3ε fused to the …. The assay is described as follows: FP.
Assay [14] addresses T6, full-length human 14-3-3ζ fused to the …. The assay is described as follows: FP.
Assay [15] deals with T7, unfused 14-3-3ε devoid of the flexible …. The assay is described as follows: FP.
The target in assay [16] is T8, unfused 14-3-3τ devoid of the flexible …. The assay is described as follows: FP.
Assay [17] has as its target T9, unfused 14-3-3β devoid of the flexible …. The assay is described as follows: FP.
In assay [18] the target is B1. The assay is described as follows: FP; with FSC.
The target in assay [19] is T10, HPV33 E6 phospho-PBM peptide p33E6 (human papillomavirus type 33). The assay is described as follows: FP.
Assay [20] addresses T11, HPV35 E6 phospho-PBM peptide p35E6 (human papillomavirus type 35). The assay is described as follows: FP.
The target of assay [21] is T11, HPV35 E6 phospho-PBM peptide p35E6. The assay is described as follows: FP. The source holds these as a separate data set.
In assay [22] the target is T10, HPV33 E6 phospho-PBM peptide p33E6. The assay is described as follows: FP; +FSC.
For assay [23], the target named is T11, HPV35 E6 phospho-PBM peptide p35E6. The assay is described as follows: FP; +FSC.
Assay [24] addresses T10, HPV33 E6 phospho-PBM peptide p33E6. The assay is described as follows: FP; with FSC.

Regarding {Biotin-ttds}-RRVRKLPST[pT]L [RSK1 phospho-PBM peptide RSK1_-1P], the Kd – broadly, a measure of binding affinity in units of concentration – in [1] worked out at 1700 nM; in [2], 500 nM; in [3], 300 nM; in [4], 700 nM; in [5], 800 nM; in assay [6] it was 1600 nM. In addition, the Kd in assay [7] was determined as 1000 nM; in assay [8] it was 1710 nM; in assay [9], 460 nM; in assay [10], 310 nM; in assay [11] it was 740 nM; in [12], 780 nM. Moreover, the Kd in assay [13] amounted to 1580 nM; in assay [14], 960 nM.

Regarding {FITC}-WLRRA[pS]APLPGLK [fluorescently labeled HSPB6 phosphopeptide (fpB6)], the Kd in assay [15] was 5270 nM; in assay [8], 9620 nM; in assay [9] it was 2470 nM; in [10] it was 1950 nM; in assay [11] it was 5220 nM; in assay [12], 9000 nM. In addition, the Kd in assay [13] came to 7170 nM; in assay [16], 6530 nM; in [14], 4760 nM; in [17] it was 3750 nM; in assay [18], 4400 nM.

For the molecule {Biotin-ttds}-RRVRKLPS[pT]TL [RSK1 phospho-PBM peptide RSK1_-2P], the Kd was determined as 3600 nM in assay [1]; 700 nM in assay [2]; 200 nM in [3]; 1000 nM in assay [4]; 500 nM in assay [5]; 1200 nM in assay [6]. In addition, the Kd in assay [7] turned out to be 1500 nM; in assay [8], 3570 nM; in [9], 660 nM; in [11], 960 nM; in assay [12], 450 nM; in assay [13] it was 1220 nM. Moreover, the Kd in assay [14] was determined as 1540 nM.

In the case of B1, the Kd in [19] came to 900 nM; in assay [20], 125000 nM; in assay [21], 125000 nM; in assay [22], 2200 nM; in [23] it was 228000 nM; in [24], 2150 nM.

The values above are taken from publication PMC7961048 (2021).
